From paper PMC2818508

Experiments:
[1] = target: Rac2 (prenylated Rac-GTP) (UniProt P15153); experiment: liposome co-sedimentation, WAVE2 quantified; conditions: reference: WAVE2 complex, not PP2A treated
[2] = target: prenylated Rac2-GTP (UniProt P15153); experiment: co-sedimentation

| % bound (of total WAVE2) [2] [%] | % bound (of total WAVE2; PIP3 liposomes + Rac-GTP) [2] [%] | Substance | other: % of total WAVE2 bound [1] |
| --- | --- | --- | --- |
| – | – | WAVE2 (from UniProt Q9Y6W5) PP2A treated WAVE2 complex | same; reference 56 |
| 55 | 79 | WAVE2 complex, PP2A treated (from UniProt Q9Y6W5 1-498; Q96F07 1-1278; Q9Y2A7 1-1128; Q8IZP0 1-508; Q8WUW1 1-75) | – |
